Laboratory results: patent US20260151494A1

Tests used:
[1] = target: apical domain of CD71 (Screen 3: 'cynomolgus apical domain of human CD71') (cynomolgus (as paragraph 454 words it; ambiguous)); experiment: primary ELISA
[2] = target: apical domain of CD71 (Screen 3: 'cynomolgus apical domain of human CD71') (cynomolgus (as paragraph 454 words it; ambiguous)); experiment: primary ELISA, RLU ratio to HSA

Binder | RLU [1] | Apical domain:HSA [2]
CD71-binding FN3 domain SEQ ID NO: 253 (designed binder) MSLPAPKNLVVSRVTEDSARLSWTAPDAAFDSFDINYWENESGGEAIALFVPGSERSYDLTGLKPGTEYWVSIGGVKGGRFSEPLYARFTT | 5.78e+06 RLU | 530
CD71-binding FN3 domain SEQ ID NO: 273 (designed binder) MLPAPKNLVVSRVTEDSARLSWTAPDAAFDSFEISYWEHTFNGEAIILFVPGSERSYDLTGLKPGTEYYVTIGGVKGGAWSPPLWAEFTT | 6.05e+06 RLU | 1060
CD71-binding FN3 domain SEQ ID NO: 257 (designed binder) MSLPAPKNLVVSHVTEDSARLSWTAPDAAFDSFEIGYWENAYKGEAIVLTVPGSERSYDLTGLKPGTEYVVFIGGVKGGVWSVPLSAIFTT | 5.15e+06 RLU | 687
CD71-binding FN3 domain SEQ ID NO: 271 (designed binder) MSLPAPKNLVVSRITEDSARLSWTAPDAAFDSFEIGYWENAYKGEAIVLTVPGSERSYDLTGLKPGTEYVVFIGGVKGGVWSVPLSAIFTT | 4.94e+06 RLU | 347
CD71-binding FN3 domain SEQ ID NO: 259 (designed binder) MSLPAPKNLVVSRVTEDSARLSWTAPDAAFDSFYIAYAEPRPDGEAILLEVPGSERSYDLTGLKPGTEYSVLIHGVKGGLLSSPLSATFTT | 5.16e+06 RLU | 411
CD71-binding FN3 domain SEQ ID NO: 261 (designed binder) MSLPAPKNLVVSRVTEDSARLSWTAPDAAFDSFYIAYAEPRPDGEAILLWVPGSERSYDLTGLKPGTEYSVLIHGVKGGLLSSPLHAYFTT | 4.57e+06 RLU | 714
CD71-binding FN3 domain SEQ ID NO: 241 (designed binder) MSLPAPKNLVVSRVTEDSARLSWTAPDAAFDSFMIAYDEFIVWGEAVVLTVPGSERSYDLTGLKPGTEYLVEILGVKGGTISGPLSAIFTT | 6.21e+06 RLU | 324
CD71-binding FN3 domain SEQ ID NO: 240 (designed binder) MSLPAPKNLVVSRVTEDSARLSWTAPDAAFDSFHIWYFEKANEGEAIPLVVPGSERSYDLTGLKPGTEYDVDIGGVKGGAWSIPLGARFTT | 6.83e+06 RLU | 71
CD71-binding FN3 domain SEQ ID NO: 243 (designed binder) MSLPAPKNLVVSRVTEDSARLSWTAPDAAFDSFFIGYLEPQPPGEAIHLYVPGSERSYDLTGLKPGTEYNVTIQGVKGGEWSAPLSAIFTT | 4.57e+06 RLU | 582
CD71-binding FN3 domain SEQ ID NO: 270 (designed binder) MSLPAPKNLVVSRVTEDSARLSWTAPDAAFDSFFIGYLEPQPPGEAIHLYVPGSERSYDLTGLKPGTEYNVTIQGVKGGFPSEPLIANSTT | 6.3e+06 RLU | 74
CD71-binding FN3 domain SEQ ID NO: 266 (designed binder) MSLPAPKNLVVSRVTEDSARLSWTAPDAAFDSFFIGYLEPQPPGEAIYLLVPGSERSYDLTGLKPGTEYNVTIQGVKGGFPSLPLVATFTT | 7.41e+06 RLU | 206
CD71-binding FN3 domain SEQ ID NO: 258 (designed binder) MSLPAPKNLVVSRVTEDSARLSWTAPDAAFDSFFIGYLEPQPPGEAIVLGVPGSERSYDLTGLKPGTEYNVTIQGVKGGFPSDPLVASFTT | 6.79e+06 RLU | 302
CD71-binding FN3 domain SEQ ID NO: 262 (designed binder) MSLPAPKNLVVSRVTEDSARLSWTAPDAAFDSFFIGYLEPQPPGEVIHLFVPGSERSYDLTGLKPGTEYNVTIQGVKGGFPSDPLVASFTT | 7.2e+06 RLU | 562
CD71-binding FN3 domain SEQ ID NO: 264 (designed binder) MSLPAPKNLVVSRVTEDSARLSWTAPDAAFDSFFIGYLEPQPPGEAIALYVPGSERSYDLTGLKPGTEYNVTIQGVKGGFPSEPLVVHFTT | 6.23e+06 RLU | 549
CD71-binding FN3 domain SEQ ID NO: 265 (designed binder) MSLPAPKNLVVSRVTEDSARLSWTAPDAAFDSFFIGYLEPQPPGEAISLYVPGSERSYDLTGLKPGTEYNVTIQGVKGGFPSDPLVAHFTT | 6.76e+06 RLU | 488
CD71-binding FN3 domain SEQ ID NO: 237 (designed binder) MSLPAPKNLVVSRVTEDSARLSWTAPDAAFDSFEIAYFERTWFGEAIVLTVPGSERSYDLTGLKPGTEYWVQIGGVKGGDWSKPLSAIFTT | 5.01e+06 RLU | 672
CD71-binding FN3 domain SEQ ID NO: 263 (designed binder) MSLPAPKNLVVSRVTEDSARLSWTAPDAAFDSFEIGYFENLYLGEAIVLTVPGSERSYDLTGLKPGTEYWVQIGGVKGGNWSSPLSAIFTT | 5.51e+06 RLU | 344
CD71-binding FN3 domain SEQ ID NO: 256 (designed binder) MSLPVPKNLVVSRVTEDSARLSWTAPDAAFDSFEIGYFENLYLGEAIVLTVPGSERSYDLTGLKPGTEYWVQIGGVKGGNWSAPLSAIFTT | 4.92e+06 RLU | 399

Binder | RLU [1] | Apical domain:HSA [2]
CD71-binding FN3 domain SEQ ID NO: 255 (designed binder) MSLPAPKNLVVSRVTEDSARLSWTTPDAAFDSFEIAYFEIAWLGEAIVLTVPGSERSYDLTGLKPGTEYWVQIGGVKGGAYSTPLSAIFTT | 5.41e+06 RLU | 131
CD71-binding FN3 domain SEQ ID NO: 269 (designed binder) MSLPAPKNLVVSRVTEDSARLSWTAPDAAFDSFEIGYFENDYFGEAIVLTVPGSERSYDLTGLKPGTEYVVFIGGVKGGNWSAPLSAIFTT | 6.01e+06 RLU | 481
CD71-binding FN3 domain SEQ ID NO: 254 (designed binder) MSLPAPKNLVVSRVTEDSARLSWTAPDAAFDSFEIGYFENLYLGEAIVLWVPGSERSYDLTGLKPGTEYWVQIGGVKGGNWSAPLSAIFTT | 5.11e+06 RLU | 448
CD71-binding FN3 domain SEQ ID NO: 272 (designed binder) MSLPAPKNLVVSRVTEDSARLSWTAPDAAFDSFEIAYGEAAYDGEAIALLVPGSERSYDLTGLKPGTEYWVQIGGVKGGNWSAPLSAIFTT | 4.66e+06 RLU | 476
CD71-binding FN3 domain SEQ ID NO: 248 (designed binder) MSLPAPKNLVVSRVTEDSARLSWTAPDAAFDSFEIGYFENLYLGEAIVLTVPGSERSYDLTGLKPGTEYVVFIGGVKGGDFSPPLSAIFTT | 5.12e+06 RLU | 550
CD71-binding FN3 domain SEQ ID NO: 251 (designed binder) MSLPAPKNLVVSRVTEDSARLSWTAPDAAFDSFEIGYFENLYLGEAIVLTVPGSERSYDLTGLKPGTEYWVQIGGVKGGNWSAPLVATFTT | 5.1e+06 RLU | 903
CD71-binding FN3 domain SEQ ID NO: 239 (designed binder) MSLPAPKNLVVSRVTEDSARLSWTAPDAAFDSFEIVYQENSAYGEAIVLTVPGSERSYDLTGLKPGTEYWVQIGGVKGGNWSAPLSAIFTT | 5.4e+06 RLU | 442
CD71-binding FN3 domain SEQ ID NO: 244 (designed binder) MSLPAPKNLVVSRVTEDSARLSWTAPDAAFDSFEIGYFENLYLGEAIVLTVPGSERSYDLTGLKPGTEYVVFIGGVKGGEYSIPLSAIFTT | 5.23e+06 RLU | 630
CD71-binding FN3 domain SEQ ID NO: 238 (designed binder) MSLPAPKNLVVSRVTEDSARLSWTAPDAAFDSFEIGYFENDYFGEAIVLTVPGSERSYDLTGLKPGTEYVVFIGGVKGGKWSAPLSAIFTT | 6.39e+06 RLU | 954
CD71-binding FN3 domain SEQ ID NO: 246 (designed binder) MSLPAPKNLVVSRVTEDSARLSWTAPDAAFDSFEIAYQELSLWGEAIVLTVPGSERSYDLTGLKPGTEYYVHIGGVKGGIWSSPLSAYFTT | 6.18e+06 RLU | 609
CD71-binding FN3 domain SEQ ID NO: 242 (designed binder) MSLPAPKNLVVSRVTEDSARLSWTAPDAAFDSFEIGYFENLYLGEAIVLTVPGSERSYDLTGLKPGTKYWVQIGGVKGGNWSAPLSAIFTT | 4.84e+06 RLU | 493
CD71-binding FN3 domain SEQ ID NO: 250 (designed binder) MSLPAPKNLVVSRVTEDSARLSWTAPDAAFDSFEIGYFENLYLGEAIVLTVPGSERSYDLTGLKPGTEYWVQIGGVNGGNWSAPLSAIFTT | 5.11e+06 RLU | 211
CD71-binding FN3 domain SEQ ID NO: 249 (designed binder) MSLPAPKNLVVSRVTEDSARLSWTAPDAAFDSFEIGYWENAYRGEAIVLTVPGSERSYDLTGLKPGTEYVVFIGGVKGGVWSVPLSAIFTT | 4.81e+06 RLU | 556
CD71-binding FN3 domain SEQ ID NO: 247 (designed binder) MSLPAPKNLVVSRVTEDSARLSWTAPDAAFDSFEIGYFENLYLGEAIVLTVPGSERSYDLTGLKPGTEYWVQIGGVKGGEWSAPLSAIFTT | 4.45e+06 RLU | 679
CD71-binding FN3 domain SEQ ID NO: 268 (designed binder) MSLPAPKNLVVSRVTEDSARLSWTAPDAAFDSFEIGYFENLYLGEAIVLTVPGSERSYDPTGLKPGTEYWVQIGGVKGGNWSAPLSAIFTT | 5.8e+06 RLU | 188
CD71-binding FN3 domain SEQ ID NO: 274 (designed binder) MSLPAPKNLVVSRVTEDSARLSWTAPDAAFDSFEIVYWEQVGVGEAIVLTVPGSERSYDLTGLKPGTEYWVQIGGVKGGGFSEPLSAIFTT | 4.64e+06 RLU | 581
CD71-binding FN3 domain SEQ ID NO: 245 (designed binder) MSLPAPKNLVVSRVTEDSARLSWTAPDAAFDSFEISYWEHTFNGEAIILFVPGSERSYDLTGLKPGTEYYVTIGGVKGGAWSPPLWAHFTT | 6.07e+06 RLU | 610
CD71-binding FN3 domain SEQ ID NO: 267 (designed binder) MSLPAPKNLVVSRVTEDSARLSWTAPDAAFDSFEISYWEHTFNGEAIILFVPGSERSYDLTGLKPGTEYYVTIGGVKGGAWSPPLWAEFTT | 6.05e+06 RLU | 178
